The values that follow come from patent US12269859B2, “Synthetic immune receptors and methods of use thereof” (Angeles Therapeutics, Inc., priority 2016, dated 2025).

The test system of this assay is target antigen-expressing cell line. Briefly: Jurkat NFAT-GFP assay, coculture with target cell lines expressing the respective target antigen (summary Table 10A). The assay is classed as cell-based, human. Also noted: key: The signs +/−, +, 2+ etc. after the name of the cell lines indicate the relative degree of positivity on the Jurkat-NFAT-GFP assay as measured by the % GFP positive cells; +: relative degree of positivity on the Jurkat-NFAT-GFP assay as measured by the % GFP positive cells; 2+: relative degree of positivity on the Jurkat-NFAT-GFP assay as measured by the % GFP positive cells. As to conditions: relative % GFP positive cells; for NFAT-GFP ASSAY Positive Cell lines: RAJI: SIR-expressing Jurkat-NFAT-GFP cells cocultured with RAJI. In outline:
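Positivity is scored when SIR-expressing reporter Jurkat cells show more GFP-positive cells than parental controls after coculture with the antigen-bearing line. Effector-to-target ratio is about 1:2, coculture lasts roughly 4–18 hours, and GFP is quantified by FACS.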

B1: 040716-G02 (protein)
chain: MALPVTALLLPLALLLHAARPDEIVLTQSPATLSLSPGERATLSCSASSSVSYMHWYQQKPGQAPRLLIYDTSKLASGIPARFSGSGSGTDFTLTISSLEPEDVAVYYCFQGSVYPFTFGQGTKLEIKRGGGGSGGGGSGGGGSQVQLQESGPGLVKPSQTLSLTCTVSGGSISTSGMGVGWIRQHPGKGLEWIGHIWWDDDKRYNPALKSRVTISVDTSKNQFSLKLSSVTAADTAVYYCARMELWSYYFDYWGQGTLVTVSSLEGKPIPNPLLGLDSTGSGEDLKNVFPPEVAVFEPSKAEIAHTQKATLVCLATGFYPDHVELSWWVNGKEVHSGVCTDPQPLKEQPALNDSRYCLSSRLRVSATFWQNPRNHFRCQVQFYGLSENDEWTQDRAKPVTQIVSAEAWGRADCGITSASYHQGVLSATILYEILLGKATLYAVLVSALVLMAMVKRKDSRGRAKRSGSGATNFSLLKQAGDVEENPGPTSTMALPVTALLLPLALLLHAARPDTIVLTQSPASLAVSLGQRATISCRASESVDSYGNSFMHWYQQKPGQPPKLLIYLASNLESGVPARFSGSGSRTDFTLTIDPVEADDAATYYCQQNNYDPWTFGGGTKLEIKGGGGSGGGGSGGGGSEVQLQQSGPELVKPGASVKMSCKASGYTFTSYVMHWVKQKPGQGLEWIGYINPYNDGTKYNEKFKGKATLTSDTSSSTAYMELNSLTSEDSAVYFCARPIYFDNDYFDYWGQGTTLKVSSTREQKLISEEDGSGIQNPDPAVYQLRDSKSSDKSVCLFTDFDSQTNVSQSKDSDVYITDKCVLDMRSMDFKSNSAVAWSNKSDFACANAFNNSIIPEDTFFPSSDVPCDVKLVEKSFETDTNLNFQNLSVIGFRILLLKVAGFNLLMTLRLWSSRAKRSGSGVKQTLNFDLLKLAGDVESNPGPSRGHMTEYKPTVRLATRDDVPRAVRTLAAAFADYPATRHTVDPDRHIERVTELQELFLTRVGLDIGKVWVADDGAAVAVWTTPESVEAGAVFAEIGPRMAELSGSRLAAQQQMEGLLAPHRPKEPAWFLATVGVSPDHQGKGLGSAVVLPGVEAAERAGVPAFLETSAPRNLPFYERLGFTVTADVEVPEGPRTWCMTRKPGA
modifications: Synthetic polynucleotide encoding a SIR
For the molecule B1, the “NFAT-GFP ASSAY Positive Cell lines: RAJI” value was “RAJI (+/−)”.

B2: 040716-F05 (protein)
chain: MALPVTALLLPLALLLHAARPDEIVLTQSPATLSLSPGERATLSCSASSSVSYMHWYQQKPGQAPRLLIYDTSKLASGIPARFSGSGSGTDFTLTISSLEPEDVAVYYCFQGSVYPFTFGQGTKLEIKRGGGGSGGGGSGGGGSQVQLQESGPGLVKPSQTLSLTCTVSGGSISTSGMGVGWIRQHPGKGLEWIGHIWWDDDKRYNPALKSRVTISVDTSKNQFSLKLSSVTAADTAVYYCARMELWSYYFDYWGQGTLVTVSSLEGKPIPNPLLGLDSTGSGEDLKNVFPPEVAVFEPSKAEIAHTQKATLVCLATGFYPDHVELSWWVNGKEVHSGVCTDPQPLKEQPALNDSRYCLSSRLRVSATFWQNPRNHFRCQVQFYGLSENDEWTQDRAKPVTQIVSAEAWGRADCGITSASYHQGVLSATILYEILLGKATLYAVLVSALVLMAMVKRKDSRGRAKRSGSGATNFSLLKQAGDVEENPGPTSTMALPVTALLLPLALLLHAARPDIQMTQSPSSLSASLGERVSLTCRATQELSGYLSWLQQKPDGTIKRLIYAASTLDSGVPKRFSGNRSGSDYSLTISSLESEDFADYYCLQYAIYPYTFGGGTKLEIKGGGGSGGGGSGGGGSEVQLQQSGPELVKPGASVKMSCKASGYTFTSYFIHWVKQKPGQGLEWIGFINPYNDGSKYNEKFKGKATLTSDKSSSTAYMELSSLTSEDSAVYYCTRDDGYYGYAMDYWGQGTSVTVSSTREQKLISEEDGSGIQNPDPAVYQLRDSKSSDKSVCLFTDFDSQTNVSQSKDSDVYITDKCVLDMRSMDFKSNSAVAWSNKSDFACANAFNNSIIPEDTFFPSSDVPCDVKLVEKSFETDTNLNFQNLSVIGFRILLLKVAGFNLLMTLRLWSSRAKRSGSGVKQTLNFDLLKLAGDVESNPGPSRGHMTEYKPTVRLATRDDVPRAVRTLAAAFADYPATRHTVDPDRHIERVTELQELFLTRVGLDIGKVWVADDGAAVAVWTTPESVEAGAVFAEIGPRMAELSGSRLAAQQQMEGLLAPHRPKEPAWFLATVGVSPDHQGKGLGSAVVLPGVEAAERAGVPAFLETSAPRNLPFYERLGFTVTADVEVPEGPRTWCMTRKPGA
modifications: Synthetic polynucleotide encoding a SIR
Consider B2, for which the “NFAT-GFP ASSAY Positive Cell lines: RAJI” value is listed as “RAJI (+/−)”.

B3: 063016-E01 (protein)
chain: MALPVTALLLPLALLLHAARPDEIVLTQSPATLSLSPGERATLSCSASSSVSYMHWYQQKPGQAPRLLIYDTSKLASGIPARFSGSGSGTDFTLTISSLEPEDVAVYYCFQGSVYPFTFGQGTKLEIKRGGGGSGGGGSGGGGSQVQLQESGPGLVKPSQTLSLTCTVSGGSISTSGMGVGWIRQHPGKGLEWIGHIWWDDDKRYNPALKSRVTISVDTSKNQFSLKLSSVTAADTAVYYCARMELWSYYFDYWGQGTLVTVSSLEGKPIPNPLLGLDSTGSGEDLKNVFPPEVAVFEPSEAEISHTQKATLVCLATGFYPDHVELSWWVNGKEVHSGVCTDPQPLKEQPALNDSRYCLSSRLRVSATFWQNPRNHFRCQVQFYGLSENDEWTQDRAKPVTQIVSAEAWGRADCGFTSESYQQGVLSATILYEILLGKATLYAVLVSALVLMAMVKRKDSRGRAKRSGSGATNFSLLKQAGDVEENPGPTSATMALPVTALLLPLALLLHAARPDVQLQESGPGLVKPSQSLSLTCTVTGYSITSDYTWNWIRQFPGNKLEWMGYITYSGSTSYNPSLKSRNSITRDTSKNQFFLQLNSVTTEDTATYYCARLGRRYTMDYWGQGTSVTVSSGGGGSGGGGSGGGGSDIQMTQSSSSFSVSLGDRVTITCMASEDIYIRLAWYQQKPGNAPRLLISAATSLETGVPSRFSGSGSGKDYTLSITSLQTEDVGTYYCQQYWSSPWTFGGGTKLEINTREQKLISEEDGSGIQNPDPAVYQLRDSKSSDKSVCLFTDFDSQTNVSQSKDSDVYITDKCVLDMRSMDFKSNSAVAWSNKSDFACANAFNNSIIPEDTFFPSPESSCDVKLVEKSFETDTNLNFQNLSVIGFRILLLKVAGFNLLMTLRLWSSRAKRSGSGVKQTLNFDLLKLAGDVESNPGPSRGHMTEYKPTVRLATRDDVPRAVRTLAAAFADYPATRHTVDPDRHIERVTELQELFLTRVGLDIGKVWVADDGAAVAVWTTPESVEAGAVFAEIGPRMAELSGSRLAAQQQMEGLLAPHRPKEPAWFLATVGVSPDHQGKGLGSAVVLPGVEAAERAGVPAFLETSAPRNLPFYERLGFTVTADVEVPEGPRTWCMTRKPGA
modifications: Synthetic Immune Receptor (SIR)
As for B3, the “NFAT-GFP ASSAY Positive Cell lines: RAJI” value was 2+. Besides, the “NFAT-GFP ASSAY Positive Cell lines: HEL” value (SIR-expressing Jurkat-NFAT-GFP cells cocultured with HEL) is given as “+/−”.

B4: 030217-K05 (protein)
chain: MALPVTALLLPLALLLHAARPDEIVLTQSPATLSLSPGERATLSCSASSSVSYMHWYQQKPGQAPRLLIYDTSKLASGIPARFSGSGSGTDFTLTISSLEPEDVAVYYCFQGSVYPFTFGQGTKLEIKRGGGGSGGGGSGGGGSQVQLQESGPGLVKPSQTLSLTCTVSGGSISTSGMGVGWIRQHPGKGLEWIGHIWWDDDKRYNPALKSRVTISVDTSKNQFSLKLSSVTAADTAVYYCARMELWSYYFDYWGQGTLVTVSSLEGKPIPNPLLGLDSTGSGEDLKNVFPPEVAVFEPSKAEIAHTQKATLVCLATGFYPDHVELSWWVNGKEVHSGVCTDPQPLKEQPALNDSRYCLSSRLRVSATFWQNPRNHFRCQVQFYGLSENDEWTQDRAKPVTQIVSAEAWGRADCGITSASYHQGVLSATILYEILLGKATLYAVLVSALVLMAMVKRKDSRGRAKRSGSGATNFSLLKQAGDVEENPGPTSMALPVTALLLPLALLLHAARPDIVMTQSHKFMSTSVGDRVSVTCKASQNVGNNVAWYQQKPGQSPKVLIYSASYRYSGVPDRFTGSGSGTDFTLTISNVQSEDLAEYFCQQYNTYPFTFGSGTKLEIKGGGGSGGGGSGGGGSEVQLEESGGGLVQPGGSMKLSCVASGFTFSNYWMNWVRQSPEKGLEWVAEIRFKSHNYATHFAESVKGRFTISRDDSKSSVYLQMNNLRAEDTGIYYCTRRIGNSDYDWWYFDVWGAGTSVTVSSASTREQKLISEEDGSGIQNPDPAVYQLRDSKSSDKSVCLFTDFDSQTNVSQSKDSDVYITDKCVLDMRSMDFKSNSAVAWSNKSDFACANAFNNSIIPEDTFFPSSDVPCDVKLVEKSFETDTNLNFQNLSVIGFRILLLKVAGFNLLMTLRLWSSRAKRSGSGVKQTLNFDLLKLAGDVESNPGPSRGHMTEYKPTVRLATRDDVPRAVRTLAAAFADYPATRHTVDPDRHIERVTELQELFLTRVGLDIGKVWVADDGAAVAVWTTPESVEAGAVFAEIGPRMAELSGSRLAAQQQMEGLLAPHRPKEPAWFLATVGVSPDHQGKGLGSAVVLPGVEAAERAGVPAFLETSAPRNLPFYERLGFTVTADVEVPEGPRTWCMTRKPGA
In the case of B4, the “NFAT-GFP ASSAY Positive Cell lines: NALM6” value (SIR-expressing Jurkat-NFAT-GFP cells cocultured with NALM6) is reported as “(+)”.
